Reference: article doi:10.1101/2021.07.16.452612

Target: Recombinant wild-type mouse talin1 fragment R11 (residues 1,974–2,140) (mouse) (UniProt P26039)
Experiment: ITC

Sequence of UniProt P26039 (P26039 1974-2140): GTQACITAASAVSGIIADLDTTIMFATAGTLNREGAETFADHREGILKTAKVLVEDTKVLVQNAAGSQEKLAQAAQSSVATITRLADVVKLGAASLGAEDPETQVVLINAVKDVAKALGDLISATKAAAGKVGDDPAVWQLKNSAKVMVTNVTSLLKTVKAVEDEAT

Kd: 17 µM | dH: 4.8 kcal/mol
Substance: tensin3 H1 peptide (from UniProt Q68CZ2 692-712)
